Consider 1 substance from patent publication US8357701B2, “Galactokinase inhibitors” (University of Miami, priority 2007, dated 2013).

The test system of series [1] is Nc1ncnc2c1ncn2[C@@H]1O[C@H](COP(=O)(O)OP(=O)(O)OP(=O)(O)O)[C@@H](O)[C@H]1O. The experiment in a line: purified protein, by the assay type. As to conditions: other: substrates of purified human GALK.
Series [2] deals with T1, O=C[C@H](O)[C@@H](O)[C@@H](O)[C@H](O)CO.
T1 construct: made in house; host or cells: Escherichia coli HMS174 (DE3), plasmid pET15b
The experiment in a line: standard pyruvate kinase/lactate dehydrogenase-coupled GALK assay. The series is classed as biochemical. The following applies: other: substrates of purified human GALK.
Text: As the percentage of substrate conversion can have significant impact on the accuracy of IC50 determination, the preferred approach is to determine reaction rates at initial velocity (i.e., zero substrate conversion). […] In this assay, the amount of galactose present in the reaction is kept in excess, whereas ATP consumed by the galactokinase reaction is recycled by the pyruvate kinase reaction. As a result, the reaction rates calculated will be close to initial velocity.
As the percentage of substrate conversion can have significant impact on the accuracy of IC50 determination, the preferred approach is to determine reaction rates at initial velocity (i.e., zero substrate conversion). […] The dose response of the selected compounds was analyzed using the standard pyruvate kinase/lactate dehydrogenase-Coupled assay. In this assay, the amount of galactose present in the reaction was kept in excess, whereas ATP consumed by the galactokinase reaction was recycled by the pyruvate kinase reaction. As a result, the reaction rates calculated were close to initial velocity.

What is called Km is the concentration of substrate that gives half-maximal velocity. For the substance human GALK (Homo sapiens), the Km in series [1] is 42 µM; in series [2], 210 µM.
